Measurements published in article PMC9757077, “The B. subtilis Rok protein is an atypical H-NS-like protein irresponsive to physico-chemical cues”.
One block for each molecule: values may come before it.

Experiments:
Rok [1] = biological target: T1, Rok (Bacillus subtilis 168, UniProt O34857 1-191); assay: TPM; conditions: Hill n=6.5 ± 0.4; 50 mM KCl; MST: 10 mM Tris-HCl pH 8, 150 mM KCl, 5% glycerol, 0.05% Tween20, 0.08 mg/ml acetylated BSA, RT, 40 nM DNA; TPM: 50 mM KCl; bridging: 50 mM KCl …
T1 sequence: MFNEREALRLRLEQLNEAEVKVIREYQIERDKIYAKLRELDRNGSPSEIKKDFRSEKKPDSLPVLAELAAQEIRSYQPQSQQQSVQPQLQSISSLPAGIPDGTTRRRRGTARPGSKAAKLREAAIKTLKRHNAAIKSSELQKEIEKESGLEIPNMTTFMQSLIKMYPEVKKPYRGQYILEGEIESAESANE

[2] = system: Rok Δ75-96 (Bacillus subtilis 168); assay: TPM; conditions: Hill n=5.7 ± 0.9; 50 mM KCl; MST: 10 mM Tris-HCl pH 8, 150 mM KCl, 5% glycerol, 0.05% Tween20, 0.08 mg/ml acetylated BSA, RT, 40 nM DNA; TPM: 50 mM KCl; bridging: 50 mM KCl …
[3] = biological target: Rok with a C-terminal His-tag (Rok-6xHis) (B. subtilis 168) (UniProt O34857)
Rok [4] = biological target: T1, Rok; assay: bridging pull-down; 0.27 uM Rok, bait N1; minimal bridged length; MST: 10 mM Tris-HCl pH 8, 150 mM KCl, 5% glycerol, 0.05% Tween20, 0.08 mg/ml acetylated BSA, RT, 40 nM DNA; TPM: 50 mM KCl; bridging: 50 mM KCl, 25 C; conditions: protein: recombinant; chain copies: 2; label: 32P; blunt
Rok [5] = biological target: T1, Rok; assay: MST; 10 mM MgCl2; MST: 10 mM Tris-HCl pH 8, 150 mM KCl, 5% glycerol, 0.05% Tween20, 0.08 mg/ml acetylated BSA, RT, 40 nM DNA; TPM: 50 mM KCl; bridging: 50 mM KCl, 25 C; conditions: protein: recombinant; chain copies: 2; label: 5'-Cy5 top strand; blunt
Rok [6] = biological target: T1, Rok; assay: MST; no MgCl2; McGhee-von Hippel n=30 bp; MST: 10 mM Tris-HCl pH 8, 150 mM KCl, 5% glycerol, 0.05% Tween20, 0.08 mg/ml acetylated BSA, RT, 40 nM DNA; TPM: 50 mM KCl; bridging: 50 mM KCl, 25 C; conditions: protein: recombinant; chain copies: 2; label: 5'-Cy5 top strand; blunt
Rok [7] = biological target: T1, Rok; assay: MST; up to 35 mM MgCl2; MST: 10 mM Tris-HCl pH 8, 150 mM KCl, 5% glycerol, 0.05% Tween20, 0.08 mg/ml acetylated BSA, RT, 40 nM DNA; TPM: 50 mM KCl; bridging: 50 mM KCl, 25 C; conditions: protein: recombinant; chain copies: 2; label: 5'-Cy5 top strand; blunt

Molecule: 685 bp AT-rich (32% GC) DNA
K half (Rok [1]): 6.1 nM
K half [2]: 8.8 nM

DNA recovery (%) in the DNA bridging assay with different Rok:sRok ratios (total protein 0.5 uM, 50 mM KCl + 1 mM MgCl2, 25°C); value at 20% sRok; Rok here is the untagged protein [3]: 40%
Molecule: small Rok (sRok) (natural protein)

B1: 100 bp prey (dsDNA)
DNA 1: GATATATGGACTCTTAGTGGCAAATATATAATGTATAAGTTCTGGAGTAGTATGGTAATAACTATTTTATTTTCGATAGCTTGAATGTTTATTTTCCCAG
DNA 2: CTGGGAAAATAAACATTCAAGCTATCGAAAATAAAATAGTTATTACCATACTACTCCAGAACTTATACATTATATATTTGCCACTAAGAGTCCATATATC
binding result (Rok [4]): binds

B2: MST aspecific 78 bp (dsDNA)
DNA 1: CGGCGCAAATTCGTGACCAGTTGCATCAGCTGCGTGAGCTGTTTATCGCAGCATCGTAACAGGATAGTGAAGAAGACT
DNA 2: AGTCTTCTTCACTATCCTGTTACGATGCTGCGATAAACAGCTCACGCAGCTGATGCAACTGGTCACGAATTTGCGCCG
Kd (Rok [5]): 34.6 ± 8 µM
Kd (Rok [6]): 79.4 ± 20 µM

B3: MST specific 78 bp (TACTA) (dsDNA)
DNA 1: CGGCGCAAATTCGTGACCAGTTGCATCAGCTACTAGAGCTGTTTATCGCAGCATCGTAACAGGATAGTGAAGAAGACT
DNA 2: AGTCTTCTTCACTATCCTGTTACGATGCTGCGATAAACAGCTCTAGTAGCTGATGCAACTGGTCACGAATTTGCGCCG
Kd (Rok [7]): ~100 µM
